The record followed here is US7169567.

Common to all, as to experiment: cell-based or functional assay
The target in assay [1] is intact rat PTH-1 receptor with HA epitope tag (rWT-HA) (rat) (UniProt P25961).
For assay [2], the target named is truncated rat PTH-1 receptor rΔNt (rat) (UniProt P25961).
Assay [3] addresses human PTH-1 receptor (human) (UniProt Q03431).
For assay [4], the target named is intact rat secretin receptor (rat) (UniProt P23811).

Where “and” joins values, the source holds several entries; their conditions need not be identical. Equal values may be shown once.

Chain of human PTH-1 receptor (human) (Q03431 27-593): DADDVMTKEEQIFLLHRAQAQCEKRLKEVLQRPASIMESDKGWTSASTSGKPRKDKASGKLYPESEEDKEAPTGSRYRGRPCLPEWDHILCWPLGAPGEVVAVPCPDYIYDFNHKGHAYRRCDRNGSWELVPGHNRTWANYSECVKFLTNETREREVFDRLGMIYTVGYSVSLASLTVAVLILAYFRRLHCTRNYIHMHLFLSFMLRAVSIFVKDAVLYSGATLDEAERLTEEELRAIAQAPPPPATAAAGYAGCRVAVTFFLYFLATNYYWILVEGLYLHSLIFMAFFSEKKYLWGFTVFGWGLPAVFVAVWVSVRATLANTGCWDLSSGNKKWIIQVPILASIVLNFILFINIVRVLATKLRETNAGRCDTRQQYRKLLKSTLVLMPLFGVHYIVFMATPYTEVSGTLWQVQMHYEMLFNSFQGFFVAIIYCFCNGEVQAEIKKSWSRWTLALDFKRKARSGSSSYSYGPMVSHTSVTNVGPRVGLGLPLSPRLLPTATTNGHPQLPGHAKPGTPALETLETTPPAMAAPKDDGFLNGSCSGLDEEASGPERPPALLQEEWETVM
Chain of intact rat PTH-1 receptor with HA epitope tag (rWT-HA) (rat) (P25961 other isoform, or with tags, fused parts or gaps): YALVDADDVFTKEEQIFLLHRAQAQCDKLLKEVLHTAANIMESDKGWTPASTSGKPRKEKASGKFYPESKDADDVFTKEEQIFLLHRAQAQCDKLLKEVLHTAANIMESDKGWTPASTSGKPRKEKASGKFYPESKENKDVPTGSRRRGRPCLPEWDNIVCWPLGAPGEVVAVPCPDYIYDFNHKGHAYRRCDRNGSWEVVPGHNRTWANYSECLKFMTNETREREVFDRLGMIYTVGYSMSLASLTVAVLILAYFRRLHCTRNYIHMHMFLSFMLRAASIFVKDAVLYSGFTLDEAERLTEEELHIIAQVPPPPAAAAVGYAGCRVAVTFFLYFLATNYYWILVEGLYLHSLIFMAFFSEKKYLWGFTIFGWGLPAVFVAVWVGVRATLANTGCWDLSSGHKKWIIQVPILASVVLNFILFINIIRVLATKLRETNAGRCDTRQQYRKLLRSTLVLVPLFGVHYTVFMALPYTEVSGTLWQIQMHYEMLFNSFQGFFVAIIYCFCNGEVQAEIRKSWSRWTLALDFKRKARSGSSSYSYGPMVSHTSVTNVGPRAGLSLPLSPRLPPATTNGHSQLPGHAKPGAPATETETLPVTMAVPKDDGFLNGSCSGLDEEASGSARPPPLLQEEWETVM
Chain of intact rat secretin receptor (rat) (P23811 26-449): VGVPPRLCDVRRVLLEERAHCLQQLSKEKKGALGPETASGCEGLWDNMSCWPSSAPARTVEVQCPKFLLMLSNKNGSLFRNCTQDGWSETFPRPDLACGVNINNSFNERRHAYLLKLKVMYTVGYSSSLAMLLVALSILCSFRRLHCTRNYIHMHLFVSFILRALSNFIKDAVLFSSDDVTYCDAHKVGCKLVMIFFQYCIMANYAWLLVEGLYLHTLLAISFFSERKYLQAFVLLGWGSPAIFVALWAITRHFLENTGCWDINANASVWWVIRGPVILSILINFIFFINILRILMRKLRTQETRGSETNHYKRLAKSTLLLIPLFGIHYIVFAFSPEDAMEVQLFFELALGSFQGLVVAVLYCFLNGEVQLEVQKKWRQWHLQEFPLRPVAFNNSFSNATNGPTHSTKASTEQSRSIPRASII
Chain of truncated rat PTH-1 receptor rΔNt (rat) (P25961 other isoform, or with tags, fused parts or gaps mutant): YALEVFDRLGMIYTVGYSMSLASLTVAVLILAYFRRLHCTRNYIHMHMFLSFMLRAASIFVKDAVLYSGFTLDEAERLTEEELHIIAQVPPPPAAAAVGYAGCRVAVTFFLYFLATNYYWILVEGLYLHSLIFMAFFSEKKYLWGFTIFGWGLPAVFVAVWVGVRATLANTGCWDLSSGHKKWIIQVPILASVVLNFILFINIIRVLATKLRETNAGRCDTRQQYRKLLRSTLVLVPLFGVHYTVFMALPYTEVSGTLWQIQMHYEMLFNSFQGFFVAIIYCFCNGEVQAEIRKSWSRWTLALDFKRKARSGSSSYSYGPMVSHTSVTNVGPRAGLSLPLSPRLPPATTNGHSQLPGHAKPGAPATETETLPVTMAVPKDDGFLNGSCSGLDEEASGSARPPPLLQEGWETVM

As to “[Leu11,D-Trp12]hPTHrP(7-34)NH2 (from UniProt P12272 43-70) (peptide)”, in assay [1], the reduction of the cAMP efficacy of the agonist PTH(1-14) was less than 70% and the reduction of the cAMP efficacy of the agonist PTH(1-34) was less than 70%.

In assay [2], “[Nle8,21,Tyr34]rPTH-(1-34)NH2 (from UniProt P04089 32-65) (peptide)” had a decrease in cAMP potency compared with rWT-HA of 100 fold. Further, in assay [3], the EC50 of the cAMP response is 2 nM, the increase in intracellular cAMP levels relative to the basal cAMP level worked out at 50 fold and the maximum cAMP response turned out to be 254 pmole/well.

Turning to “rat PTH(1-15) (from UniProt P04089 32-46) (peptide)”, in assay [3], the cAMP formation over the basal level was 20 fold; the dose required for cAMP activation relative to PTH(1-34) (orders of magnitude) was 5 and 6.

In assay [4], secretin(1-27) (peptide) returned an increase in cAMP levels of 50 fold.
